Reference: PMC8924901 (Journal of molecular biology, 2021)

Molecular target: T1, rat PLCγ1 isolated cSH2 domain (H663-E759) (rat, UniProt P10686 663-759)
T1 sequence (looked up): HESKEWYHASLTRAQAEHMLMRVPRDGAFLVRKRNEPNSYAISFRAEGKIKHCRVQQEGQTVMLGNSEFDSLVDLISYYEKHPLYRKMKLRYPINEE
Assay: NMR titration

binding result: binds
B1: rat PLCγ1 isolated split PH (sPH) domain (D485-N529/N865-R936 with a C-terminal 6X-His tag) (domain or fragment, UniProt P10686 485-529, looked up)
chain: DISNSIKNGILYLEDPVNHEWYPHYFVLTSSKIYYSEETSSDQGNNSPLGDLLRGVLDVPACQIAIRPEGKNNRLFVFSISMPSVAQWSLDVAADSQEELQDWVKKIREVAQTADAR
